Reference: patent publication US20250215403A1, “Compositions and Methods for Cardiac Tissue Regeneration” (Temple University - Of The Commonwealth System Of Higher …, priority 2022, published 2025)

What was measured:
[1] = Mouse MI model: heart histology 28 days post-MI (Masson trichrome scar size, HW/BW, WGA CM size, CD31 capillaries); type: in vivo
Protocol: (§1) All surgical and experimental procedures with mice were performed in accordance with protocols approved by Institutional Animal Care and Use Committees at Temple University Animal Care and Use Committee (IACUC). C57BL6 or CM-specific MADM mice (8-12-weeks-old) were anesthetized with isoflurane. MI was induced by permanent ligation of the LAD, as previously described (Garikipati, V. N. S., et al., 2019, Nature Communications, 10:4317). Briefly, the left thoracic region was shaved and sterilized. After intubation, the heart was exposed through a left thoracotomy. A suture was placed to ligate the LAD. The thoracotomy and skin were sutured closed in layers. Excess air was removed from the thoracic cavity, and the mouse was removed from ventilation when normal breathing was established. In order to determine the effect of modRNA on cardiovascular outcome after MI, modRNAs (100 μg/heart) were injected into the infarct zone immediately after LAD ligation (Magadum A., et al., Circulation. 2020, 141 (15): 1249-1265). For examination of heart histology, hearts were collected at the end of each study, quickly washed in PBS, weighed, and fixed in 4% PFA for cryo-sectioning and immunostainings. In all experiments, the surgeon was blinded to the treatment group. For assessment of heart histology, hearts were collected at the end of each study. The hearts were excised, briefly washed in PBS, perfused with perfusion buffer, weighed and fixed in 4% PFA at 4° C. overnight. The heart blocks were transverse sectioned at 6-8 μm using cryostat. The heart sections were further processed for histological evaluation using immunostaining (see below) or histological scar staining using Masson's trichrome staining kit (Sigma) according to standard procedures. Measuring the ratio of heart weight to body weight was done using a scale. This ratio was calculated as the heart tissue weight relative to the mouse total body weight in grams (g).
Mice hearts were harvested, weighed, and fixed in 4% PFA/PBS overnight on shaker and then washed with PBS for 1 hour and incubated in 30% sucrose/PBS at 4° C. for 12-18 hours. Hearts were then fixed in OCT and frozen at −80° C. (Magadum A., et al., Circulation. 2020, 141 (15): 1249-1265). Transverse heart sections (6-8 μm) were made using a cryostat. […] For immunostaining with wheat germ agglutinin (WGA) for CM size quantification, images were captured at 40× magnification, and ImageJ was used to determine the area of each cell. Quantitative analyses involved counting of multiple fields from 5-8 mouse hearts per group, and 3-4 sections/heart (˜50 cells per field assessed, for a total ˜250 cells per sample). […] BrdU positive CMs were counted in multiple fields from three independent samples per group and 3 sections/heart. […]

cell cycle markers = experiment: qPCR of cell-cycle-promoting genes and cell-cycle inhibitors in heart post-MI; type: in vivo, mouse; conditions: 2 days post-MI; compared to Luc modRNA
Protocol: Total RNA was isolated using TRIzol™ RNA isolation and RNeasy® (Qiagen) then reverse transcribed with High-Capacity cDNA Reverse Transcription Kit (Applied Biosystems), according to the manufacturer's instructions. Real-time qPCR analyses were performed on a StepOnePlus™ Real-Time PCR System using SYBR™ Green (Applied Biosystems). The primer sequences were synthesized by IDT (see Table 4 below). Data were normalized to 18s expression, where appropriate (endogenous controls). Fold-changes in gene expression were determined by the […] method and were presented relative to an internal control.

cardiomyocytes (CM) = experiment: Mouse MI model: immunostaining of heart sections for CM cell cycle markers (ki67, pH3, BrdU, Aurora B); type: in vivo; conditions: seven days post-MI
Protocol: as §1
Mice were injected with AAV9-GFP or AAV9-YAP1-shRNA (GeneCopoeia) through retro-orbital injection 7 days before LAD. A total of 5×10^11 viral genomes (50 μl total volume delivered) was injected per mouse. The level of YAP1 inhibition was determined at the mRNA level by qPCR 14 days post injection.
Mice hearts were harvested, weighed, and fixed in 4% PFA/PBS overnight on shaker and then washed with PBS for 1 hour and incubated in 30% sucrose/PBS at 4° C. for 12-18 hours. Hearts were then fixed in OCT and frozen at −80° C. (Magadum A., et al., Circulation. 2020, 141 (15): 1249-1265). Transverse heart sections (6-8 μm) were made using a cryostat. Frozen sections were rehydrated in PBS for 5-10 min followed by permeabilization with PBS with 0.1% Triton™ X100 (PBST) for 7-8 min. Heart sections were then treated with 3% H2O2 for 5 min and washed (3×5 min) with PBST. The samples were then blocked with PBS+10% Donkey normal serum+0.1% Triton™ X100 (PBSST) for 1 hour at room temperature. Primary antibodies (see complete list of primary antibodies used for this Example in Table 2 below) diluted in PBST were added and incubated overnight at 4° C. Slides were washed with PBST (3×5 min) followed by incubation with a secondary antibody (Invitrogen, 1:200) diluted in PBST for 90-120 min at room temperature. The samples were further washed with PBST (3×5 min) and stained with DAPI or Hoechst 33342 (1 μg/ml) diluted in PBST for 7 min. After being washed with PBST (3×7 min) and tap water (1×5 min) slides were mounted with mounting medium (VECTASHIELD®) for imaging (Magadum A., et al., Circulation. 2020, 141 (15): 1249-1265). Stained slides were stored at 4° C. All staining was performed on 4-8 hearts/group, with 2-3 sections/heart. For immunostaining with wheat germ agglutinin (WGA) for CM size quantification, images were captured at 40× magnification, and ImageJ was used to determine the area of each cell. […]

B1: PSAT1 modRNA: modified mRNA with N1-methylpseudouridine, transcribed in vitro, encoding phosphoserine aminotransferase 1 (ORF SEQ ID NO: 1, RNA SEQ ID NO: 2) (nucleic acid)
chain: AUGGAAGCCACCAAGCAAGUGGUUAACUUUGGGCCCGGGCCUGCCAAGCUGCCACACUCGGUAUUGUUGGAGAUCCAGAAGCAGCUACUAGACUACAGAGGACUCGGCAUCAGUGUGCUCGAAAUGAGUCACAGGUCAUCAGAUUUUGCCAAGAUUAUUGGCAAUACAGAGAAUCUUGUGAGGGAAUUGCUAGCUGUUCCCAACAACUACAAGGUGAUCUUUGUACAAGGAGGUGGGUCUGGCCAGUUCAGUGCUGUCCCCUUAAAUCUGAUUGGCCUGAAAGCUGGAAGGAGUGCUGACUACGUGGUGACCGGAGCUUGGUCAGCUAAGGCUGCGGAAGAAGCCAAGAAGUUUGGAACGGUGAACAUUGUCCACCCUAAACUUGGAAGUUACACAAAAAUUCCAGACCCAAGCACCUGGAACCUCAACCCGGACGCCUCCUAUGUAUACUUCUGUGCAAACGAGACUGUGCACGGGGUGGAGUUUGACUUCGUACCUGACGUCAAGGGAGCGGUGCUGGUCUGUGACAUGUCCUCAAACUUCUUAUCCAGGCCGGUGGAUGUUUCCAAGUUUGGUGUGAUUUUCGCUGGUGCUCAGAAGAAUGUUGGCUCUGCCGGGGUGACGGUGGUGAUUGUCCGGGAUGACCUGCUGGGGUUCUCGCUCAGAGAGUGCCCAUCAGUCCUUGACUACAAAGUGCAGGCUGGGAACAACUCUUUGUAUAACACACCUCCGUGCUUCAGCAUCUACGUCAUGGGCAUGGUCCUGGAAUGGAUCAAGAACAACGGCGGGGCCGCAGCCAUGGAGAAGCUCAGCUCCAUCAAAUCCCAAAUGAUUUAUGAGAUCAUUGAUAAUUCUCAAGGAUUUUAUGUAUGCCCAGUGGAGCGCCAGAAUAGAAGCAGGAUGAACAUCCCAUUUCGCAUUGGCAACGCCAAAGGAGACGAAGCUUUGGAAAAGCGGUUUCUUGACAAGGCGGUAGAACUCAACAUGAUCUCCUUGAAGGGGCACAGGUCAGUGGGAGGCAUUCGUGCCUCUCUGUAUAACGCUGUCACAACCGAAGACGUUGAGAAGCUGGCGGCCUUCAUGAAGAAUUUCUUGGAGAUGCAUCAGCUGUGA
modifications: N1-methylpseudouridine
- CM size (WGA) [1]: significantly decreased
- capillary density (CD31) [1]: improved
- heart weight to body weight (HW/BW) ratio [1]: significantly increased
- scar size (Masson's trichrome staining) ([1]; compared to Luc modRNA): decreased
- expression of positive cell cycle markers (cell cycle markers): induced
- negative regulators of cell cycle markers (cell cycle markers): inhibiting
- CM cell cycle inhibition under YAP1 inhibition (cardiomyocytes (CM); PSAT1 modRNA plus AAV9-YAP1-shRNA, compared to controls, significantly lower rate than PSAT1 modRNA alone): partially reversed
- CMs positive for Aurora B (cardiomyocytes (CM); compared to Luc modRNA): significant increase
- CMs positive for BrdU (DNA synthesis) (cardiomyocytes (CM); compared to Luc modRNA): significant increase
- CMs positive for pH3 (cardiomyocytes (CM); compared to Luc modRNA): significant increase
